Laboratory results taken from the Immune Epitope Database (IEDB).

Key:
HLA-A*02:01 [1] = assay: IEDB peptide-MHC binding, purified MHC/competitive/radioactivity; filed as Kd, often an IC50 or EC50 that approximates it; ≥ and ≤ were set here for values at or beyond the usual limits of such assays
HLA-A*02:17 = assay: as above
HLA-A*02:03 = assay: as above
HLA-B*58:01 = assay: IEDB peptide-MHC binding, purified MHC/direct/fluorescence; filed as Kd, often an IC50 or EC50 that approximates it; ≥ and ≤ were set here for values at or beyond the usual limits of such assays
HLA-B*15:17 = assay: as above
HLA-B*57:01 [2] = assay: as above
HLA-A*02:06 = assay: IEDB peptide-MHC binding, purified MHC/competitive/radioactivity; filed as Kd, often an IC50 or EC50 that approximates it; ≥ and ≤ were set here for values at or beyond the usual limits of such assays
HLA-B*48:01 = assay: IEDB peptide-MHC binding, purified MHC/direct/fluorescence; filed as Kd, often an IC50 or EC50 that approximates it; ≥ and ≤ were set here for values at or beyond the usual limits of such assays
HLA-A*68:01 = assay: IEDB peptide-MHC binding, purified MHC/competitive/radioactivity; filed as Kd, often an IC50 or EC50 that approximates it; ≥ and ≤ were set here for values at or beyond the usual limits of such assays; conditions: source organism: Dengue virus 3 Martinique/1243/1999
HLA-B*57:01 [3] = assay: as above
HLA-A*11:01 = assay: IEDB peptide-MHC binding, purified MHC/competitive/fluorescence; ≥ and ≤ were set here for values at or beyond the usual limits of such assays; conditions: source organism: Vaccinia virus
HLA-A*30:02 = assay: IEDB peptide-MHC binding, purified MHC/competitive/radioactivity; filed as Kd, often an IC50 or EC50 that approximates it; ≥ and ≤ were set here for values at or beyond the usual limits of such assays; conditions: source organism: Dengue virus 2 Jamaica/1409/1983
HLA-B*46:01 = assay: IEDB peptide-MHC binding, purified MHC/direct/fluorescence; filed as Kd, often an IC50 or EC50 that approximates it; ≥ and ≤ were set here for values at or beyond the usual limits of such assays; conditions: source organism: Dengue virus
HLA-A*02:11 = assay: as above; conditions: source organism: Orthohantavirus tulaense
HLA-A*02:01 [4] = assay: as above; conditions: source organism: Orthohantavirus andesense
HLA-A*02:12 = assay: as above; conditions: source organism: Orthohantavirus tulaense
HLA-A*02:19 = assay: as above; conditions: source organism: Orthohantavirus tulaense
HLA-B*27:05 = assay: as above; conditions: source organism: Francisella tularensis subsp. holarctica LVS
HLA-B*08:01 = assay: IEDB peptide-MHC binding, purified MHC/competitive/radioactivity; filed as Kd, often an IC50 or EC50 that approximates it; ≥ and ≤ were set here for values at or beyond the usual limits of such assays
HLA-B*15:01 = assay: as above; conditions: source organism: Dengue virus 2 Peru/IQT2913/1996
HLA-B*40:01 = assay: as above
HLA-B*40:02 = assay: as above
HLA-B*45:01 = assay: as above
HLA-B*44:02 = assay: as above
HLA-B*44:03 = assay: as above
HLA-B*18:01 = assay: as above
[5] = source organism: Dengue virus 2 Jamaica/1409/1983
[6] = source organism: Dengue virus 4 Dominica/814669/1981
[7] = source organism: Marburg virus - Musoke, Kenya, 1980
[8] = source organism: Dengue virus 4 Philippines/H241/1956
[9] = source organism: Dengue virus 1 Singapore/S275/1990
[10] = source organism: Dengue virus 1 Brazil/97-11/1997
[11] = source organism: West Nile virus
[12] = source organism: Dengue virus 3 Martinique/1243/1999
[13] = source organism: Camelpox virus M-96
[14] = source organism: Dengue virus 3 China/80-2/1980
[15] = source organism: Yellow fever virus
[16] = source organism: Dengue virus 2 Peru/IQT2913/1996
[17] = source organism: Dengue virus 2 Thailand/NGS-C/1944
[18] = source organism: Mammarenavirus machupoense
[19] = source organism: Mammarenavirus juninense

ALLLLVAHYA
Kd (HLA-A*02:01 [1]; [5]): 1.33 µM
Kd (HLA-A*02:17; [5]): ≥ 70.4 µM

ALSEGVYRI
Kd (HLA-A*02:01 [1]; [6]): 0.00288 µM
Kd (HLA-A*02:03; [6]): 0.0173 µM
Kd (HLA-A*02:17; [6]): 0.172 µM

ATAVNQECW
Kd (HLA-B*58:01; [7]): 0.0516 µM
Kd (HLA-B*15:17; [7]): 0.0041 µM
Kd (HLA-B*57:01 [2]; [7]): 0.122 µM

FLDLPLPWA
Kd (HLA-A*02:01 [1]; [8]): 0.0104 µM
Kd (HLA-A*02:17; [8]): 0.108 µM

FMNEDHWFS
Kd (HLA-A*02:01 [1]; [9]): 0.00976 µM
Kd (HLA-A*02:06; [10]): 0.27 µM
Kd (HLA-A*02:17; [9]): 0.244 µM

GQWGGDWAV
Kd (HLA-B*48:01; source organism: Brucella abortus 2308): 0.0614 µM

GRMEKKTWK
Kd (HLA-B*48:01; [11]): ≥ 20 µM

GTSGSPIINR
Kd (HLA-A*68:01): 0.0138 µM
Kd (HLA-B*57:01 [3]; [12]): 4 µM

GTSGSPIVDR
Kd (HLA-B*57:01 [3]; [5]): 2.34 µM

IILEFFLMV
Kd (HLA-A*02:06; [10]): 0.00178 µM
Kd (HLA-A*02:17; [8]): 0.182 µM

ISGSNIVIF
Kd (HLA-B*58:01; [13]): 0.903 µM
Kd (HLA-B*15:17; [13]): 0.155 µM
Kd (HLA-B*57:01 [2]; [13]): ≥ 20 µM

KGVEYNIDK
IC50 (HLA-A*11:01): 31.6 µM

KLEKASLIEV
Kd (HLA-A*02:17; [14]): 1.14 µM

KLFMALVAFL
Kd (HLA-A*02:01 [1]; [5]): 0.0466 µM
Kd (HLA-A*02:03; [5]): 0.00335 µM
Kd (HLA-A*02:17; [5]): 0.0518 µM

KLQLKGMSY
Kd (HLA-A*30:02): 0.131 µM
Kd (HLA-B*46:01): ≥ 20 µM

KLYEGDLRV
Kd (HLA-A*02:11): ≤ 0.001 µM
Kd (HLA-A*02:01 [4]): ≤ 0.001 µM
Kd (HLA-A*02:12): 0.005 µM
Kd (HLA-A*02:19): 0.008 µM

KPYMAMSAL
Kd (HLA-B*48:01; source organism: Salmonella enterica subsp. enterica serovar Typhimurium): 0.541 µM

KQLGQVMLLV
Kd (HLA-A*02:01 [1]; [8]): 0.0202 µM
Kd (HLA-A*02:06; [12]): 0.00578 µM
Kd (HLA-A*02:17; [8]): 0.172 µM

KRLSVNQKY
Kd (HLA-B*48:01; source organism: Francisella tularensis subsp. holarctica LVS): ≥ 20 µM
Kd (HLA-B*27:05): 0.0622 µM

KSFLVHREW
Kd (HLA-B*15:17; [11]): 0.0057 µM

LAVMGDAAW
Kd (HLA-B*15:17; [15]): 0.027 µM
Kd (HLA-B*57:01 [2]; [15]): 0.0355 µM

LLLMRTSWAL
Kd (HLA-B*08:01; [12]): 0.00147 µM
Kd (HLA-A*02:01 [1]; [14]): 0.00552 µM
Kd (HLA-A*02:06; [12]): 0.0133 µM
Kd (HLA-A*02:17; [14]): 0.0153 µM

LLLTIGLSLV
Kd (HLA-A*02:01 [1]; [9]): 0.00391 µM
Kd (HLA-A*02:06; [10]): 0.062 µM
Kd (HLA-A*02:03; [10]): 0.0146 µM
Kd (HLA-A*02:17; [9]): 2.62 µM

LMMTTIGIVL
Kd (HLA-B*08:01; [16]): 5.9 µM
Kd (HLA-A*02:01 [1]; [17]): 0.0289 µM
Kd (HLA-B*15:01): 0.0217 µM
Kd (HLA-A*02:06; [16]): 0.0308 µM
Kd (HLA-A*02:17; [17]): 1.19 µM

LTSLGKAVHQ
Kd (HLA-B*57:01 [3]; [8]): ≥ 70.4 µM

NDNFLMRNV
Kd (HLA-B*40:01; [18]): ≥ 76.1 µM
Kd (HLA-B*40:02; [18]): 2.12 µM
Kd (HLA-B*45:01; [18]): ≥ 77.5 µM
Kd (HLA-B*44:02; [18]): 9.96 µM
Kd (HLA-B*44:03; [18]): ≥ 42.5 µM
Kd (HLA-B*18:01; [18]): ≥ 76.7 µM

NVTTQSIHE
IC50 (HLA-A*11:01): ≥ 148 µM

PDFNSLISI
Kd (HLA-B*40:01; [18]): 15.8 µM
Kd (HLA-B*40:02; [18]): 0.813 µM
Kd (HLA-B*45:01; [18]): ≥ 77.7 µM
Kd (HLA-B*44:02; [18]): ≥ 26.6 µM
Kd (HLA-B*44:03; [18]): ≥ 78.1 µM
Kd (HLA-B*18:01; [18]): ≥ 77.5 µM

PDVLRSDVY
Kd (HLA-B*40:01; [19]): ≥ 76.1 µM
Kd (HLA-B*40:02; [19]): ≥ 77.2 µM
Kd (HLA-B*45:01; [19]): ≥ 77.7 µM
Kd (HLA-B*44:02; [19]): ≥ 48.5 µM
Kd (HLA-B*44:03; [19]): ≥ 78.1 µM
Kd (HLA-B*18:01; [19]): 2.25 µM
